Consider 58 variants from the supplement of paper PMC6757056.

± gives the standard deviation of the averaged measurements.

B1: library; a variant is named by its letters at N, in order (parent)
chain: GCUGUCACCGGUGUAUUACCCUAGUGGUCGACCGGUCUGAUGAGUCUNNNNNNAGACGAAACAGC

In data set [1] the parent is B1. Nature of the data set: normalized RNA/DNA level with ligand (relative to sTRSVctl = 100) (log10 (% of sTRSVctl)); ligand: hypoxanthine (xanthine aptamer); higher = less ribozyme self-cleavage, higher mRNA level. To be noted: ligand concentration (+) RNA-Seq: 5 mM, HEK293T, reporter: mCherry (pCS4076), ligand present: yes. A digest of the protocol:
(§1)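 For each 6-well well, 4 µg of library plasmid encoding mCherry-linked ribozyme switches, or eGFP-linked ones in some ligand experiments, was transfected into HEK293T. Any ligand was added 1 h before transfection, and RNA was extracted with EDTA 72 h after it, then reverse-transcribed, amplified, barcoded and sequenced. RNA level was obtained by dividing RNA reads by DNA reads, normalizing to a spiked-in non-cleaving sequence or to the top sequences, then scaling and log-transforming. The top set was 25 sequences, scaling was ×100 with log10, and ≥100 DNA reads were required.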

In data set [2] the parent is B1. Nature of the data set: normalized RNA/DNA level without ligand (relative to sTRSVctl = 100) (log10 (% of sTRSVctl)); ligand: hypoxanthine (xanthine aptamer); higher = less ribozyme self-cleavage, higher mRNA level. To be noted: HEK293T, reporter: mCherry (pCS4076), ligand present: no. In short, it runs like this:
as §1

In the case of GAUCGC, the “normalized RNA/DNA level with ligand (log10)” value in data set [1] came out at 1.93 ± 0.023. Further, in data set [2], the “normalized RNA/DNA level without ligand (log10)” value was found to be 1.8 ± 0.053.
The matching figures for AAUCCC: 1.94 ± 0.024 and 1.84 ± 0.035.
As to AAUCCA, the “normalized RNA/DNA level with ligand (log10)” value in data set [1] came out at 1.92 ± 0.046. For the same variant, the “normalized RNA/DNA level without ligand (log10)” value in data set [2] worked out at 1.865 ± 0.015.
Taken in the same sequence, the figures for UCAAGG were 1.936 ± 0.0091 and 1.79 ± 0.026.
UCAAGC: in data set [1], the “normalized RNA/DNA level with ligand (log10)” value is 1.964 ± 0.019. The “normalized RNA/DNA level without ligand (log10)” value in data set [2] was found to be 1.87 ± 0.053.
Take AAGUUC: the “normalized RNA/DNA level with ligand (log10)” value in data set [1] worked out at 1.9 ± 0.052. For the same variant, in data set [2], the “normalized RNA/DNA level without ligand (log10)” value is 1.787 ± 0.0052.
The matching figures for CAUUAG: 1.941 ± 0.019 and 1.73 ± 0.054.
CAUUAC: in data set [1], the “normalized RNA/DNA level with ligand (log10)” value is 1.9 ± 0.046. Besides, the “normalized RNA/DNA level without ligand (log10)” value in data set [2] is 1.82 ± 0.0041.
For the variant CCACCA, the “normalized RNA/DNA level with ligand (log10)” value in data set [1] stood at 1.97 ± 0.026. In addition, in data set [2], the “normalized RNA/DNA level without ligand (log10)” value was found to be 1.88 ± 0.046.
Taken in the same sequence, the figures for CCACCG were 1.99 ± 0.028 and 1.84 ± 0.2.
Taken in the same sequence, the figures for CCACCU were 2.033 ± 0.0077 and 1.93 ± 0.053.
The matching figures for ACAAGU: 1.88 ± 0.032 and 1.564 ± 0.013.
As to CCAAUC, the “normalized RNA/DNA level with ligand (log10)” value in data set [1] amounted to 1.98 ± 0.032. Further, the “normalized RNA/DNA level without ligand (log10)” value in data set [2] was 1.94 ± 0.044.
CCAAUA: in data set [1], the “normalized RNA/DNA level with ligand (log10)” value was 1.899 ± 0.0083. For the same variant, in data set [2], the “normalized RNA/DNA level without ligand (log10)” value was found to be 1.8 ± 0.032.
Regarding CCAAUU, in data set [1], the “normalized RNA/DNA level with ligand (log10)” value turned out to be 1.924 ± 0.016. The “normalized RNA/DNA level without ligand (log10)” value in data set [2] came to 1.85 ± 0.028.
Take GCACGC: in data set [1], the “normalized RNA/DNA level with ligand (log10)” value was 1.96 ± 0.06. Also, the “normalized RNA/DNA level without ligand (log10)” value in data set [2] amounted to 1.86 ± 0.043.
For GCACGA, in data set [1], the “normalized RNA/DNA level with ligand (log10)” value was determined as 1.925 ± 0.0075. Besides, the “normalized RNA/DNA level without ligand (log10)” value in data set [2] worked out at 1.75 ± 0.077.
As for GAUGCA, the “normalized RNA/DNA level with ligand (log10)” value in data set [1] came out at 1.97 ± 0.036. For the same variant, the “normalized RNA/DNA level without ligand (log10)” value in data set [2] is 1.83 ± 0.02.
On to ACACGC, for which the “normalized RNA/DNA level with ligand (log10)” value in data set [1] stood at 1.94 ± 0.033. For the same variant, the “normalized RNA/DNA level without ligand (log10)” value in data set [2] is 1.71 ± 0.03.
For the variant UCAAAC, the “normalized RNA/DNA level with ligand (log10)” value in data set [1] was 1.916 ± 0.0079. Also, the “normalized RNA/DNA level without ligand (log10)” value in data set [2] was determined as 1.85 ± 0.03.
Taken in the same sequence, the figures for AAUGAA were 1.872 ± 0.0038 and 1.71 ± 0.018.
Consider CAGUAC, for which, in data set [1], the “normalized RNA/DNA level with ligand (log10)” value stood at 1.898 ± 0.0032. The “normalized RNA/DNA level without ligand (log10)” value in data set [2] came to 1.668 ± 0.015.
As for CCAACG, the “normalized RNA/DNA level with ligand (log10)” value in data set [1] amounted to 1.924 ± 0.0039. Besides, the “normalized RNA/DNA level without ligand (log10)” value in data set [2] was 1.859 ± 0.012.
The matching figures for CCAACA: 1.93 ± 0.022 and 1.883 ± 0.017.
Taken in the same sequence, the figures for CAUGUC were 1.91 ± 0.056 and 1.92 ± 0.042.
CAUGUG: in data set [1], the “normalized RNA/DNA level with ligand (log10)” value came to 1.93 ± 0.02. Besides, the “normalized RNA/DNA level without ligand (log10)” value in data set [2] came out at 1.882 ± 0.012.
The matching figures for CAUGUA: 1.91 ± 0.011 and 1.771 ± 0.0036.
On to CAUGUU, for which, in data set [1], the “normalized RNA/DNA level with ligand (log10)” value came out at 1.94 ± 0.026. In addition, the “normalized RNA/DNA level without ligand (log10)” value in data set [2] was 1.879 ± 0.0072.
On to CAUUGG, for which the “normalized RNA/DNA level with ligand (log10)” value in data set [1] was found to be 1.91 ± 0.04. In data set [2], the “normalized RNA/DNA level without ligand (log10)” value came to 1.47 ± 0.068.
With CAUUGC, the “normalized RNA/DNA level with ligand (log10)” value in data set [1] worked out at 1.94 ± 0.06. Moreover, in data set [2], the “normalized RNA/DNA level without ligand (log10)” value is 1.87 ± 0.053.
Regarding CAUUGU, the “normalized RNA/DNA level with ligand (log10)” value in data set [1] worked out at 1.94 ± 0.049. For the same variant, the “normalized RNA/DNA level without ligand (log10)” value in data set [2] was 1.877 ± 0.0085.
With UAUUGC, the “normalized RNA/DNA level with ligand (log10)” value in data set [1] turned out to be 1.94 ± 0.038. The “normalized RNA/DNA level without ligand (log10)” value in data set [2] was found to be 1.841 ± 0.0096.
The matching figures for UAUUGA: 1.901 ± 0.016 and 1.74 ± 0.021.
Taken in the same sequence, the figures for GCAACU were 1.97 ± 0.042 and 1.96 ± 0.028.
The matching figures for GCAACC: 1.93 ± 0.052 and 1.82 ± 0.03.
In the case of GCAACG, the “normalized RNA/DNA level with ligand (log10)” value in data set [1] worked out at 1.9 ± 0.031. Also, the “normalized RNA/DNA level without ligand (log10)” value in data set [2] came out at 1.595 ± 0.0074.
For the variant GAUACU, in data set [1], the “normalized RNA/DNA level with ligand (log10)” value was determined as 1.94 ± 0.069. In data set [2], the “normalized RNA/DNA level without ligand (log10)” value worked out at 1.87 ± 0.029.
With GAUACC, the “normalized RNA/DNA level with ligand (log10)” value in data set [1] was determined as 1.95 ± 0.03. Further, the “normalized RNA/DNA level without ligand (log10)” value in data set [2] was determined as 1.875 ± 0.016.
Taken in the same sequence, the figures for ACACCG were 1.9 ± 0.12 and 1.55 ± 0.078.
The matching figures for ACACCU: 1.952 ± 0.016 and 1.84 ± 0.024.
With ACACCA, in data set [1], the “normalized RNA/DNA level with ligand (log10)” value is 1.97 ± 0.069. Besides, the “normalized RNA/DNA level without ligand (log10)” value in data set [2] worked out at 1.873 ± 0.0035.
Taken in the same sequence, the figures for CAUCCC were 1.935 ± 0.0098 and 1.91 ± 0.033.
In the case of CAUCCU, the “normalized RNA/DNA level with ligand (log10)” value in data set [1] is 1.94 ± 0.066. Besides, the “normalized RNA/DNA level without ligand (log10)” value in data set [2] was 1.94 ± 0.023.
For the variant CAUCCA, the “normalized RNA/DNA level with ligand (log10)” value in data set [1] came to 1.97 ± 0.056. Moreover, the “normalized RNA/DNA level without ligand (log10)” value in data set [2] amounted to 1.94 ± 0.055.
Consider CAUCCG, for which the “normalized RNA/DNA level with ligand (log10)” value in data set [1] was found to be 1.95 ± 0.026. Also, the “normalized RNA/DNA level without ligand (log10)” value in data set [2] was found to be 1.91 ± 0.029.
For UCACAA, the “normalized RNA/DNA level with ligand (log10)” value in data set [1] stood at 1.92 ± 0.061. Besides, the “normalized RNA/DNA level without ligand (log10)” value in data set [2] amounted to 1.75 ± 0.019.
The matching figures for UCACAG: 1.87 ± 0.033 and 1.56 ± 0.056.
Taken in the same sequence, the figures for UCACAC were 1.94 ± 0.088 and 1.741 ± 0.015.
Regarding AAUACU, the “normalized RNA/DNA level with ligand (log10)” value in data set [1] worked out at 1.8942 ± 0.0003. Further, the “normalized RNA/DNA level without ligand (log10)” value in data set [2] worked out at 1.833 ± 0.0049.
For AAUAAC, the “normalized RNA/DNA level with ligand (log10)” value in data set [1] amounted to 1.919 ± 0.0067. The “normalized RNA/DNA level without ligand (log10)” value in data set [2] stood at 1.81 ± 0.029.
The matching figures for CAUGGC: 1.97 ± 0.044 and 1.87 ± 0.046.
The matching figures for CAUGGA: 1.92 ± 0.05 and 1.7786 ± 0.00037.
Taken in the same sequence, the figures for CAUAUU were 1.91 ± 0.044 and 1.8 ± 0.041.
Take CAUAUC: the “normalized RNA/DNA level with ligand (log10)” value in data set [1] is 1.95 ± 0.0088. Also, the “normalized RNA/DNA level without ligand (log10)” value in data set [2] came out at 1.9 ± 0.012.
Taken in the same sequence, the figures for CAUAUG were 1.94 ± 0.016 and 1.86 ± 0.042.
Taken in the same sequence, the figures for CAUAUA were 1.9 ± 0.027 and 1.73 ± 0.028.
Regarding AAUGUC, the “normalized RNA/DNA level with ligand (log10)” value in data set [1] was determined as 1.98 ± 0.064. Moreover, the “normalized RNA/DNA level without ligand (log10)” value in data set [2] came out at 1.921 ± 0.0048.
CAGUCG: in data set [1], the “normalized RNA/DNA level with ligand (log10)” value is 1.98 ± 0.025. Further, the “normalized RNA/DNA level without ligand (log10)” value in data set [2] was 1.888 ± 0.0091.
